Measurements as given in patent US20180016348A1 (Janssen / Centocor, published 2018).

B1: CR12042 (antibody, V domains shown)
VH: EVQLVESGAEVRKPGSSVKVSCTASGDTFSSYTITWVRQAPGQGLEWMGEIIPIFGTANYAQKFQGRVTLTADESTTTAYMDLSSLRSEDTAVYYCARGPDNHSDRYFYYGMDVWGQGTTVTVSS
VL: EIVLTQSPLSLPVTPGEPASISCRSSQSLLHSTGNNYLDWYLQKPGQSPQLLIYLGSNRASGVPDRFSGSGSGTDFTLKISRVEAEDVGVYYCMQALQTPRTFGQGTKVDIK
B2: CR12041 (antibody, V domains shown)
VH: EVQLVQSGAEVKKPGASVKVSCKAAGYTFTNYYLHWVRQAPGQGLESMGIINPSSGGTIYAQKFQGRVTMTRDTSTSTVFMELSSLTSEDTAVYYCARAGEGKSRFGEGKLRYFYYGMDVWGQGTTVTVSS
VL: not shown
B3: CR12040 (antibody, V domains shown)
VH: QVQLVQSGAEVKKPGASVKVSCKASGYTFTNYYINWVRQAPGQGLEWMGRINPLHGGTGFAEKFQGRLTMTRDTSTSTVDMELSSLRSEDTAIYYCVKERDTTMATDYYGRSGCFDYWGQGTLVTVSS
VL: EIVLTQSPATLSLSPGERATLSCRASQSVRSYLAWYQQKPGQAPRLLIYDASNRATGIPARFSGSGSGTDFSLTISSLEPEDFAVYYCQQRSNWPITFGQGTRLEIK
B4: CR12044 (antibody, V domains shown)
VH: EVQLVQSGSEVRKPGSTVKVSCKGSGGAFRTSVIHWVRQAPGQGLRWMGGIIPTLDTANHAQEFQGRATITADESTTTAYLELSSLRSEDSAVYYCATDYGGNSDRLGSYSFAFDVWGQGTTVTVSS
VL: not shown

Columns and labels:
[1] = biological target: T1, neuraminidase (NA) of H1N1 A/New Caledonia/20/1999 (influenza A virus H1N1 A/New …); assay: cell-based or functional assay
[2] = biological target: T2, neuraminidase (NA) of H1N1 A/Mississippi/3/2001 (influenza A virus H1N1 …); assay: cell-based or functional assay
[3] = biological target: T3, neuraminidase (NA) of H3N2 A/Wisconsin/67/2005 (influenza A virus H3N2 …); assay: cell-based or functional assay
[4] = biological target: T4, neuraminidase (NA) of H3N2 A/Brisbane/10/2007 (influenza A virus H3N2 …); assay: cell-based or functional assay
[5] = biological target: T1, neuraminidase (NA) of H1N1 A/New …; assay: cell-based or functional assay; remark: listed apart in the source
[6] = biological target: T2, neuraminidase (NA) of H1N1 …; assay: cell-based or functional assay; remark: listed apart in the source
[7] = biological target: T3, neuraminidase (NA) of H3N2 …; assay: cell-based or functional assay; remark: listed apart in the source
[8] = biological target: T4, neuraminidase (NA) of H3N2 …; assay: cell-based or functional assay; remark: listed apart in the source
[9] = biological target: human FcγRIIIa receptor (V158) (human, UniProt P08637 17-254); assay: cell-based or functional assay
[10] = biological target: T5, neuraminidase (NA) of H1N1 A/Puerto Rico/8/1934 (influenza A virus H1N1 A/Puerto …, UniProt P03468 1-454); assay: flow cytometry on NA-transfected 293-F cells
T5 construct: whole, on cells

[11] = biological target: neuraminidase (NA) of H3N2 A/Hong Kong/1/1968 (influenza A virus H3N2 A/Hong …, UniProt Q91MA2 1-469); assay: flow cytometry on 293-F cells transfected with NA; '-: no binding'
Sequence of neuraminidase (NA) of H3N2 A/Hong Kong/1/1968 (Q91MA2 whole entry): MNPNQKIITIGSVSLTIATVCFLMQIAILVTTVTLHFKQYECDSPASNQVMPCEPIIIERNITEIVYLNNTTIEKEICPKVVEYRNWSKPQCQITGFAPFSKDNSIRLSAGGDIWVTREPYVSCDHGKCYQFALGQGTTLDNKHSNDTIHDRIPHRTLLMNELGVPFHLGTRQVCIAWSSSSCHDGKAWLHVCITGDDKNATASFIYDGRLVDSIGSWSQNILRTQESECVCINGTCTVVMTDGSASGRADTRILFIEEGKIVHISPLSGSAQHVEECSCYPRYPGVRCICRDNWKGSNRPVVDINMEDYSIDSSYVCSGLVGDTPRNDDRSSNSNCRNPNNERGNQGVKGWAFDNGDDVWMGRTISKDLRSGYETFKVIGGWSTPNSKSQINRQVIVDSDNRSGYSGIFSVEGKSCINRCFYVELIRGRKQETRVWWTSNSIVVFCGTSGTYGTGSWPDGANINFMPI

T5 sequence (P03468 whole entry): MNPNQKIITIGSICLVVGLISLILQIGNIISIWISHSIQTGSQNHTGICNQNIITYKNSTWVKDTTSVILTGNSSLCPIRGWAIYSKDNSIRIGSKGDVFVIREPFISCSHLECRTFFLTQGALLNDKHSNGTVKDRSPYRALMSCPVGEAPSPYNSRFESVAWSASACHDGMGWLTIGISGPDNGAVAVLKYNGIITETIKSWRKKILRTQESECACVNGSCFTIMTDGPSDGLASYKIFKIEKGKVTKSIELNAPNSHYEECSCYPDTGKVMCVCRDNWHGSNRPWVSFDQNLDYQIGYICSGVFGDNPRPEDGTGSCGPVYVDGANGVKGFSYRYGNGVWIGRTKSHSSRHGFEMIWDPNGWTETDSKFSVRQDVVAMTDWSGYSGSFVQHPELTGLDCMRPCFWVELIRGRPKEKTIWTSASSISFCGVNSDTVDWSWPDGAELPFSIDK
Sequence of human FcγRIIIa receptor (V158) (P08637 17-254 F176V limits assumed): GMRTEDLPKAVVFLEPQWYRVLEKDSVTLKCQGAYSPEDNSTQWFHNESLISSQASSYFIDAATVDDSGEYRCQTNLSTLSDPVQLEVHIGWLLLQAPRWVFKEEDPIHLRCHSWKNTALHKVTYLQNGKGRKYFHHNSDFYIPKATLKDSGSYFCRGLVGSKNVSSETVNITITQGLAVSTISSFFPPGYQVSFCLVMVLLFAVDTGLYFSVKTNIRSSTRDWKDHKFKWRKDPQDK

Binder | EC50 of neuraminidase inhibition (NA-XTD assay, whole virus) [1] | EC50 of neuraminidase inhibition (NA-XTD assay, whole virus) [2] | EC50 of neuraminidase inhibition (NA-XTD assay, whole virus; one experiment) [3] | EC50 of neuraminidase inhibition (NA-XTD assay, whole virus; one experiment) [4] | IC50 of virus neutralization (VNA on MDCK cells) [5] | IC50 of virus neutralization (VNA on MDCK cells) [6] | IC50 of virus neutralization (VNA on MDCK cells; one experiment) [7] | IC50 of virus neutralization (VNA on MDCK cells; one experiment) [8] | ADCC reporter D/A ratio; A549 targets infected with H1N1 A/Brisbane/59/2007 [9] | ADCC reporter D/A ratio; A549 targets infected with H1N1 A/Mississippi/03/2001 [9] | ADCC reporter D/A ratio; A549 targets infected with H1N1 A/New Caledonia/20/1999 [9] | ADCC reporter D/A ratio; A549 targets infected with H5N1 A/Hong Kong/156/1997 [9] | ADCC reporter EC50; A549 targets infected with H1N1 A/Brisbane/59/2007 [9] | ADCC reporter EC50; A549 targets infected with H1N1 A/Mississippi/03/2001 [9] | ADCC reporter EC50; A549 targets infected with H1N1 A/New Caledonia/20/1999 [9] | ADCC reporter EC50; A549 targets infected with H5N1 A/Hong Kong/156/1997 [9] | binding result [10] | binding result [11]
B1 | 0.18 µg/mL | 0.12 µg/mL | 1.87 µg/mL | 4.8 µg/mL | 0.2 µg/mL | 0.2 µg/mL | > 100 µg/mL | > 100 µg/mL | 6.11 | 17.4 | 17.7 | 6.87 | 0.08 µg/mL | 0.14 µg/mL | 0.28 µg/mL | 0.01 µg/mL | binds | no binding (tested: 5 µg/ml)
B2 | > 100 µg/mL | > 100 µg/mL |  |  | 0.74 µg/mL | 0.59 µg/mL |  |  | 2.15 | 8.38 | 4.08 | 5.48 | 1.97 µg/mL | 0.58 µg/mL | 1.61 µg/mL | 1.09 µg/mL |  | no binding (tested: 0.5 µg/ml)
B3 | > 100 µg/mL | > 100 µg/mL |  |  | > 50 µg/mL | > 50 µg/mL |  |  | 2.73 | 9.26 | 3.19 | 3.1 | 3.83 µg/mL | 0.06 µg/mL | 0.07 µg/mL | 1.22 µg/mL | binds | no binding (tested: 5 µg/ml)
B4 | 0.17 µg/mL | 0.96 µg/mL |  |  | 0.13 µg/mL | 0.37 µg/mL |  |  | 6.49 | 20.2 | 17.5 | 2.37 | 0.28 µg/mL | 5.19 µg/mL | 0.93 µg/mL | 11.6 µg/mL | binds | no binding (tested: 5 µg/ml)
